Experimental data: doi:10.1101/583088

Target: 3-methylaspartate ammonia lyase from Citrobacter amalonaticus (Citrobacter amalonaticus) (UniProt O66145)
Test: SEC

- stoichiometry N: 2
Substance: 3-methylaspartate ammonia lyase from Citrobacter amalonaticus (from UniProt O66145 1-413) (enzyme)
